The values below come from publication PMC11969024 (2025).

B1: peptide HD2 (from tick evasin EVA4) / CCL17 (biotinylated, synthetic) (parent complex)
chain 1: EEDDYTAYAPLTCYFT
chain 2: ARGTNVGRECCLEYFKGAIPLRKLKTWYQTSEDCSRDAIVFVTVQGRAICSDPNNKRVKNAVKYLQSLERS

The test covers variants of B1.
For chain 1 EEDDYTAYAPLTCWFT [chain 1 Y14W], the enrichment was -0.976 log2 (difference from the parental peptide).

Turning to chain 1 EEDDYTAYAPLTCKFT [chain 1 Y14K], the enrichment is -7.27 log2 (difference from the parental peptide).

As to chain 1 EEDDYTAYAPLTCHFT [chain 1 Y14H], the enrichment is -3.18 log2 (difference from the parental peptide).

As to chain 1 EEDDYTAYAPLTCGFT [chain 1 Y14G], the enrichment is -6.43 log2 (difference from the parental peptide).

In the case of chain 1 EEDDYTAYAPLTCVFT [chain 1 Y14V], the enrichment is -3.57 log2 (difference from the parental peptide).

For the variant chain 1 EEDDYTAYAPLTCQFT [chain 1 Y14Q], the enrichment was -4.69 log2 (difference from the parental peptide).

As to chain 1 EEDDYTAYAPLTCSFT [chain 1 Y14S], the enrichment is -5.6 log2 (difference from the parental peptide).

As to chain 1 EEDDYTAYAPLTCIFT [chain 1 Y14I], the enrichment is -2.85 log2 (difference from the parental peptide).

As to chain 1 EEDDYTAYAPLTLYFT [chain 1 C13L], the enrichment is -6.33 log2 (difference from the parental peptide).

In the case of chain 1 EEDDYTAYAPLTYYFT [chain 1 C13Y], the enrichment is -5.68 log2 (difference from the parental peptide).

As to chain 1 EEDDYTAYAPLTRYFT [chain 1 C13R], the enrichment is -10.7 log2 (difference from the parental peptide).

With chain 1 EEDDYTAYAPLTPYFT [chain 1 C13P], the enrichment is -6.7 log2 (difference from the parental peptide).

On to chain 1 EEDDYTAYMPLTCYFT [chain 1 A9M], for which the enrichment is -5.43 log2 (difference from the parental peptide).

As to chain 1 EEDDYTAYHPLTCYFT [chain 1 A9H], the enrichment is -5.14 log2 (difference from the parental peptide).

With chain 1 EEDDYTAYFPLTCYFT [chain 1 A9F], the enrichment was -8.26 log2 (difference from the parental peptide).

For the variant chain 1 EEDDLTAYAPLTCYFT [chain 1 Y5L], the enrichment was -3.76 log2 (difference from the parental peptide).

In the case of chain 1 EEDDDTAYAPLTCYFT [chain 1 Y5D], the enrichment is -5.57 log2 (difference from the parental peptide).

Turning to chain 1 EEDDCTAYAPLTCYFT [chain 1 Y5C], the enrichment is -5.02 log2 (difference from the parental peptide).

As to chain 1 EEDGYTAYAPLTCYFT [chain 1 D4G], the enrichment is -4.74 log2 (difference from the parental peptide).

With chain 1 EEDLYTAYAPLTCYFT [chain 1 D4L], the enrichment was -4.56 log2 (difference from the parental peptide).

chain 1 EEDDYTKYAPLTCYFT [chain 1 A7K]: the enrichment was 3.56 log2 (difference from the parental peptide).

With chain 1 EEDDYTRYAPLTCYFT [chain 1 A7R], the enrichment was 3.96 log2 (difference from the parental peptide).

Regarding chain 1 EEDDYTLYAPLTCYFT [chain 1 A7L], the enrichment was -0.26 log2 (difference from the parental peptide).

As to chain 1 EEDDYTIYAPLTCYFT [chain 1 A7I], the enrichment is -4.17 log2 (difference from the parental peptide).

On to chain 1 EEDDYTAYAPLTCYFK [chain 1 T16K], for which the enrichment was 0.193 log2 (difference from the parental peptide).

Take chain 1 EEDDYTAYAPLTCYFL [chain 1 T16L]: the enrichment is 0.451 log2 (difference from the parental peptide).

On to chain 1 EEDDYTAYAPLTCYFH [chain 1 T16H], for which the enrichment is 0.123 log2 (difference from the parental peptide).

Turning to chain 1 EEDDYTAYAPLFCYFT [chain 1 T12F], the enrichment is 0.112 log2 (difference from the parental peptide).

In the case of chain 1 EEDDYTAYAPLACYFT [chain 1 T12A], the enrichment was -4.61 log2 (difference from the parental peptide).

Take chain 1 EEDDYTAYAPLLCYFT [chain 1 T12L]: the enrichment was 0.297 log2 (difference from the parental peptide).

Consider chain 1 EEDDYTAYAPLRCYFT [chain 1 T12R], for which the enrichment was -1.85 log2 (difference from the parental peptide).

For chain 1 EEDDYTAYAYLTCYFT [chain 1 P10Y], the enrichment is -6.08 log2 (difference from the parental peptide).

With chain 1 EADDYTAYAPLTCYFT [chain 1 E2A], the enrichment was -0.532 log2 (difference from the parental peptide).

With chain 1 EQDDYTAYAPLTCYFT [chain 1 E2Q], the enrichment was -0.416 log2 (difference from the parental peptide).

Consider chain 1 ERDDYTAYAPLTCYFT [chain 1 E2R], for which the enrichment is -1.35 log2 (difference from the parental peptide).

Turning to chain 1 EVDDYTAYAPLTCYFT [chain 1 E2V], the enrichment is -1.03 log2 (difference from the parental peptide).

Regarding chain 1 ELDDYTAYAPLTCYFT [chain 1 E2L], the enrichment was -1.6 log2 (difference from the parental peptide).

In the case of chain 1 SEDDYTAYAPLTCYFT [chain 1 E1S], the enrichment was 0.17 log2 (difference from the parental peptide).

On to chain 1 HEDDYTAYAPLTCYFT [chain 1 E1H], for which the enrichment was -0.323 log2 (difference from the parental peptide).

For chain 1 REDDYTAYAPLTCYFT [chain 1 E1R], the enrichment was -1.72 log2 (difference from the parental peptide).

Consider chain 1 EEDDYQAYAPLTCYFT [chain 1 T6Q], for which the enrichment was 0.398 log2 (difference from the parental peptide).

As for chain 1 EEDDYEAYAPLTCYFT [chain 1 T6E], the enrichment was 1.53 log2 (difference from the parental peptide).

In the case of chain 1 EEDDYFAYAPLTCYFT [chain 1 T6F], the enrichment is -2.91 log2 (difference from the parental peptide).

Consider chain 1 EEDDYDAYAPLTCYFT [chain 1 T6D], for which the enrichment was 1.63 log2 (difference from the parental peptide).

Consider chain 1 EEDDYWAYAPLTCYFT [chain 1 T6W], for which the enrichment is 0.392 log2 (difference from the parental peptide).

For chain 1 EEDDYIAYAPLTCYFT [chain 1 T6I], the enrichment was -6.22 log2 (difference from the parental peptide).

As for chain 1 EENDYTAYAPLTCYFT [chain 1 D3N], the enrichment was -1.74 log2 (difference from the parental peptide).

For chain 1 EEKDYTAYAPLTCYFT [chain 1 D3K], the enrichment is -3.46 log2 (difference from the parental peptide).

With chain 1 EEVDYTAYAPLTCYFT [chain 1 D3V], the enrichment was -5.2 log2 (difference from the parental peptide).

For the variant chain 1 EEIDYTAYAPLTCYFT [chain 1 D3I], the enrichment was -4.4 log2 (difference from the parental peptide).

Take chain 1 EEGDYTAYAPLTCYFT [chain 1 D3G]: the enrichment is -4.23 log2 (difference from the parental peptide).

chain 1 EEPDYTAYAPLTCYFT [chain 1 D3P]: the enrichment was -2.92 log2 (difference from the parental peptide).

Turning to chain 1 EEDDYTAYAPLTCYDT [chain 1 F15D], the enrichment is -0.947 log2 (difference from the parental peptide).

chain 1 EEDDYTAYAPLTCYST [chain 1 F15S]: the enrichment was -0.792 log2 (difference from the parental peptide).

Consider chain 1 EEDDYTAYAPLTCYWT [chain 1 F15W], for which the enrichment is -1.65 log2 (difference from the parental peptide).

Take chain 1 EEDDYTAYAPLTCYET [chain 1 F15E]: the enrichment is -1.17 log2 (difference from the parental peptide).
